In patent EP4755912A1 (Shandong Boan Biotechnology Co., Ltd., dated 2026):
Read-outs that look alike come from different tables or passages of the source.

Columns and labels:
Human CD228 protein [1] = target: T1, Human CD228 protein (human, UniProt P08582 20-708, limits assumed); assay: ELISA, plate coated with CD228 protein at 0.2 µg/mL
T1 construct: A His tag is named only for the panning and Western blot material (CD228-His); also called CD228 antigenic protein; C28
T1 sequence: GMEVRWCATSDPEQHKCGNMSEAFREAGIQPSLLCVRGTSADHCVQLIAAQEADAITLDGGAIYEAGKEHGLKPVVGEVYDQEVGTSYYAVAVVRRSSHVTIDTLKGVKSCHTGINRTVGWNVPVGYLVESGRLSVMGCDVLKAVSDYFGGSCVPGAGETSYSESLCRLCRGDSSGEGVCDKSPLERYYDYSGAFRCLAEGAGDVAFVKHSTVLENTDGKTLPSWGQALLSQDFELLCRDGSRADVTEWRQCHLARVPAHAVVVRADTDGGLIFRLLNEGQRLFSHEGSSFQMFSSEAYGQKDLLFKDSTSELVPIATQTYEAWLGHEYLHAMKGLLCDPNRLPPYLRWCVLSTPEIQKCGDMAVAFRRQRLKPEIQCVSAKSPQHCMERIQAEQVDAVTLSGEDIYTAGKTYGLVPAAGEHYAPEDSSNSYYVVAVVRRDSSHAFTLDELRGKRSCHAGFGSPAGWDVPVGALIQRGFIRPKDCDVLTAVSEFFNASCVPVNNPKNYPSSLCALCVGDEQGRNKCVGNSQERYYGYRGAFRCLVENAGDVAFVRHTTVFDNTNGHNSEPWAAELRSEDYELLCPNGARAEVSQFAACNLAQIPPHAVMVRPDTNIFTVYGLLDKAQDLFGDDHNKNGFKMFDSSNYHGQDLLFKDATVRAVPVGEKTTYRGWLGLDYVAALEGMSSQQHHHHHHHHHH

Human CD228 protein [2] = target: T1, Human CD228 protein; assay: BLI, antibody on ProA sensor, CD228 protein in solution
Human CD228 protein [3] = target: T1, Human CD228 protein; assay: as above; remark: listed apart in the source

| Binder | EC50 (Human CD228 protein [1]) | Kd (Human CD228 protein [2]) | Response (Human CD228 protein [2]) | Kd (Human CD228 protein [3]) |
| --- | --- | --- | --- | --- |
| R546 (antibody, V domains shown, Rabbit-derived clone from a phage library, made as a full-length antibody with rabbit constant regions in HEK293 cells; also called CD228-R546; self-made antibody R546) VH: QSLEESGGRLVKPDETLTLTCTVSGFSLSSYDMSWVRQAPGKGLQWIGAATAGGNTYHASWAKGRFTISKTSTTVDLKITSPTTEDTATYFCTRGLNIWGPGTLVTVSS VL: DPMLTQTASPVSAAVGSTVTINCQASQSVYNNNNLNWYQQKPGQPPKLLIYAASTLASGVPSRFKGSGSGTQFTLTISDVQCDDAATYYCLGAYDCSSADCGAFGGGTELEILG | 1.52 ng/mL | 1.33 nM | 0.128 | 1.33 nM |
| R526 (antibody, V domains shown, Rabbit-derived clone, full-length antibody with rabbit constant regions) VH: QEQLEESGGRLVTPGTPLTLTCTVSGFSLSTYAINWIRQAPGKGLEWIGIIGGNGATYYTNWAKGRFTISKTSTTVDLKITSPTIEDTATYFCARGTNFWGPGTLVTVSS VL: DPVLTQTASPVSAAVGGTITINCQASQSVYNNNQLSWFQQNPGQPPKRLIHSTSTLAPGVSSRFKGSGSGTQFTLTISDVQCDDAATYYCLGSYDCVSADCNAFGGGTEVVVKG | 5.71 ng/mL | < 0.001 nM | 0.0251 | – |
